Reference: PMC3007124 (Nature cell biology, 2010)

How the values were obtained:
EYFP-LacI-PSF = molecular target: T1, EYFP-LacI-PSF (UniProt Q8VIJ6 1-699); assay: LacO/LacI tethering in cells, recruitment seen by fluorescence microscopy
T1 sequence: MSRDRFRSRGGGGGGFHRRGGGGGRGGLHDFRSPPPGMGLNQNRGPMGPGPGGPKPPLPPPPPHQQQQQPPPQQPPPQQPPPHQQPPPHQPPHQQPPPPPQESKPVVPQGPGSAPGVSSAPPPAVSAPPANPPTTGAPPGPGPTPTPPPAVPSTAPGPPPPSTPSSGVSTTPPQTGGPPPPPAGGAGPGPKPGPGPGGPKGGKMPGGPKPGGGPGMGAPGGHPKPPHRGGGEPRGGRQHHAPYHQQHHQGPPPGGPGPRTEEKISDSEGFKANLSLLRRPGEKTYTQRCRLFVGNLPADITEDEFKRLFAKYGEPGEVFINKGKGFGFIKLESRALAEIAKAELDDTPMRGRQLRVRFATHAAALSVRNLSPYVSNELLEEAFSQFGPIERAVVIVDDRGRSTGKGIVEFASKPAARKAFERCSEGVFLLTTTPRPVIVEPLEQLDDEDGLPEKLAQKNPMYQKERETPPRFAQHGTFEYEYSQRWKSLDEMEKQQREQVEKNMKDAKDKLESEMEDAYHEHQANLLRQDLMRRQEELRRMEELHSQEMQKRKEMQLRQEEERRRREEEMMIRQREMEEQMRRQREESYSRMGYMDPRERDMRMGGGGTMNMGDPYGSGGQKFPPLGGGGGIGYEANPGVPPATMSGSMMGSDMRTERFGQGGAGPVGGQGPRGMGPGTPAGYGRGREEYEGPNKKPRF

EYFP-LacI-PSP1 = molecular target: T2, EYFP-LacI-PSP1 (UniProt Q8R326 1-523); assay: as above
T2 sequence: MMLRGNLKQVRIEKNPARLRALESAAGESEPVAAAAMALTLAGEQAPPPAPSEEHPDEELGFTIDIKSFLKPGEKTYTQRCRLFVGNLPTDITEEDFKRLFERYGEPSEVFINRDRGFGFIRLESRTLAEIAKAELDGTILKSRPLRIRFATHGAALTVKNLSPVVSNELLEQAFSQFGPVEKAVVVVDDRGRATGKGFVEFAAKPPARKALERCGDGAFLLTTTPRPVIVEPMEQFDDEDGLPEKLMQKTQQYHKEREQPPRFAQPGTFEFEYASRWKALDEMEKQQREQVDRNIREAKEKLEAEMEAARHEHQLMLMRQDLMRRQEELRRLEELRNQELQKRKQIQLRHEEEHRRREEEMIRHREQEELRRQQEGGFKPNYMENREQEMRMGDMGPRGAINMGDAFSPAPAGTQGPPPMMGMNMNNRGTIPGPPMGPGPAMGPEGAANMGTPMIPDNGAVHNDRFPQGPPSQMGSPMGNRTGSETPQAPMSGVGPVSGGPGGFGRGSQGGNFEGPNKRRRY

B1: PSP2 (natural protein)
chain: MKIFVGNVDGADTTPEELAALFAPYGTVMSCAVMKQFAFVHMRENAGAVRAIEALHGHELRPGRALVVEMSRPRPLNTWKIFVGNVSAACTSQELRSLFERRGRVIECDVVKDYAFVHMEKEADAKAAIAQLNGKEVKGKRINVELSTKGQKKGPALAIQSGDKTKKPGAGDTAFPGTGGFSATFDYQQAFGNSTGGFDGQARQPTPPFFGRDRSPLRRSPPRASYVAPLTAQPATYRAQPSVSLGAAYRAQPSASLGVGYRTQPMAAQAASYRAQPSVSLGAPYRGQLASPSSQSAAASSLGPYGGVQPSASALSTYGGQAAAASSLNSYGAQGSSLASYGNQPSSYGAQAASSYGVRAAASSYNTQGAASSLGSYGAQAASYGAQSAASSLAYGAQAASYSAQPSASYSAQSAPYAAQQAASYSSQPAAYVAQPATAAAYASQPAAYAAQATTPMAGSYGAQPVVQTQLNSYGAQASIGLSGSYGAQSAAAATGSYGAAAAYGAQPSATLAAPYRTQSSASLAASYAAQQHPQAAASYRGQPGSAYDGTGQPSAAYLSMSQGAVANANSTPPPYERTRLSPPRASYDDPYKKAVAMSKRYGSDRRLAELSDYRRLSESQLSFRRSPTKSSLDYRRLPDAHSDYARYSGSYNDYLRAAQMHSGYQRRM
EYFP-LacI-PSF
  percent of cells with recruitment to the tethered protein: 58 % of the cells

B2: mCherry-p54nrb (natural protein)
chain: MQSNKAFNLEKQNHTPRKHHQHHHQQHHQQQQQQQQQQPPPPIPANGQQASSQNEGLTIDLKNFRKPGEKTFTQRSRLFVGNLPPDITEEEMRKLFEKYGKAGEVFIHKDKGFGFIRLETRTLAEIAKVELDNMPLRGKQLRVRFACHSASLTVRNLPQYVSNELLEEAFSVFGQVERAVVIVDDRGRPSGKGIVEFSGKPAARKALDRCSEGSFLLTTFPRPVTVEPMDQLDDEEGLPEKLVIKNQQFHKEREQPPRFAQPGSFEYEYAMRWKALIEMEKQQQDQVDRNIKEAREKLEMEMEAARHEHQVMLMRQDLMRRQEELRRMEELHNQEVQKRKQLELRQEEERRRREEEMRRQQEEMMRRQQEGFKGTFPDAREQEIRMGQMAMGGAMGINNRGAMPPAPVPPGTPAPPGPATMMPDGTLGLTPPTTERFGQAATMEGIGAIGGTPPAFNRPAPGAEFAPNKRRRY
EYFP-LacI-PSP1
  percent of cells with recruitment to the tethered protein: 87 % of the cells
